From paper PMC7483736, “Catalytic specificity of the Lactobacillus plantarum cystathionine γ-lyase presumed by the crystallographic analysis” (Scientific Reports, 2020)
Numbering of substitutions follows the chain as printed. Numbers in names are those of the source.

Legend:
L. plantarum CGL [1] = target: T1, L. plantarum CGL (Lactiplantibacillus plantarum, UniProt F9UT53, K194A); assay: X-ray crystal structure, […] Å; format: binding; conditions: covalent; external aldimine with PLP at active site, inactive mutant
T1 construct: gene cblB; C-terminal His6 tag (kept), pET-21a(+), E. coli BL21(DE3); homotetramer, active site between two subunits; PCR primers (translated) give N-terminus MRTLTMKFETQ and C-terminus FASIQAD before LE-His6

L. plantarum CGL [2] = target: T1, L. plantarum CGL; assay: X-ray crystal structure, […] Å; format: binding; conditions: covalent; external aldimine with PLP, substrate analogue, phosphate at distal carboxyl site
[3] = target: K194A mutant of L. plantarum CGL (cystathionine γ-lyase from Lactobacillus plantarum SN35N) (Lactobacillus plantarum SN35N); assay: crystal structure; K194A CGL at 9 mg/mL with PLP and 2 mM cystathionine or 2 mM L-serine; sitting-drop vapor diffusion, precipitant 0.4 M KH2PO4 and 0.4 M Na2HPO4; tetramer seen in the crystal
H2S release as PbS, A390 [4] = substrate: N[C@@H](CS)C(=O)O; assay: H2S release as PbS, A390; format: biochemical, Lactiplantibacillus plantarum; conditions: L-cysteine beta-lyase, 100 mM HEPES-KOH pH 7.5, 5 mM TCEP, 0.4 mM lead(II) nitrate, 37 °C
Description: (§1) H2S release as PbS, A390 on L. plantarum CGL

H2S release as PbS, A390 [5] = substrate: N[C@@H](CCS)C(=O)O; assay: H2S release as PbS, A390; format: biochemical, Lactiplantibacillus plantarum; conditions: L-homocysteine gamma-lyase
Description: as §1

[6] = substrate: N[C@@H](CSSC[C@H](N)C(=O)O)C(=O)O; assay: lactate dehydrogenase-coupled pyruvate formation, NADH A340; format: biochemical, Lactiplantibacillus plantarum; conditions: L-cystine beta-lyase, 100 mM HEPES-KOH pH 7.5, 0.2 mM NADH, 37 °C
Description: lactate dehydrogenase-coupled pyruvate formation, NADH A340 on L. plantarum CGL

DTNB thiol release, A412 = substrate: N[C@@H](CCSC[C@H](N)C(=O)O)C(=O)O; assay: DTNB thiol release, A412; format: biochemical, Lactiplantibacillus plantarum; conditions: cystathionase, 100 mM HEPES-KOH pH 7.5, 0.5 mM DTNB, 37 °C
Description: DTNB thiol release, A412 on L. plantarum CGL

[7] = 100 mM HEPES-KOH pH 7.5, 5 mM TCEP, 0.4 mM lead(II) nitrate, 37 °C
[8] = buffer same, fitted with substrate inhibition, called inaccurate by authors

T1 sequence (F9UT53 entry or part of it K194A): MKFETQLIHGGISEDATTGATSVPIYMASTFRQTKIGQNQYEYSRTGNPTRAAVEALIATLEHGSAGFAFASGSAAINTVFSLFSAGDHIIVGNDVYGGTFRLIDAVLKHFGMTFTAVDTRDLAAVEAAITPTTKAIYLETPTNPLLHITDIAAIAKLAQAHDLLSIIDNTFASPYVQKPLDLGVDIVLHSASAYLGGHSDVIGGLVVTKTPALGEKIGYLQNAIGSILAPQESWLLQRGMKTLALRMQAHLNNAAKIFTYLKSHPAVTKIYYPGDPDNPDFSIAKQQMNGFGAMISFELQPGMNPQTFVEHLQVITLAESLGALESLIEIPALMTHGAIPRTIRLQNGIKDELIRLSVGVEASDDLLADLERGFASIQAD

## N[C@@H](CCSC[C@H](N)C(=O)O)C(=O)O [cystathionine]
L. plantarum CGL [1]
  X-ray crystal structure, 3.10 Å: Cystathionine was found in the crystal structure as a part of the external aldimine

## N[C@@H](CO)C(=O)O [L-serine]
L. plantarum CGL [2]
  X-ray crystal structure, 2.75 Å: L-serine was also found as part of the external aldimine formed with PLP

## K194A mutant of L. plantarum CGL (cystathionine γ-lyase from Lactobacillus plantarum SN35N) (enzyme)
[3]
  stoichiometry N: 4

B1: L. plantarum CGL (Lactiplantibacillus plantarum WCFS1) (protein)
chain: MKFETQLIHGGISEDATTGATSVPIYMASTFRQTKIGQNQYEYSRTGNPTRAAVEALIATLEHGSAGFAFASGSAAINTVFSLFSAGDHIIVGNDVYGGTFRLIDAVLKHFGMTFTAVDTRDLAAVEAAITPTTKAIYLETPTNPLLHITDIAAIAKLAQAHDLLSIIDNTFASPYVQKPLDLGVDIVLHSASKYLGGHSDVIGGLVVTKTPALGEKIGYLQNAIGSILAPQESWLLQRGMKTLALRMQAHLNNAAKIFTYLKSHPAVTKIYYPGDPDNPDFSIAKQQMNGFGAMISFELQPGMNPQTFVEHLQVITLAESLGALESLIEIPALMTHGAIPRTIRLQNGIKDELIRLSVGVEASDDLLADLERGFASIQAD
notes: C-terminal His6 tag (kept), pET-21a(+), E. coli BL21(DE3); homotetramer, active site between two subunits; PCR primers (translated) give N-terminus … and C-terminus FASIQAD before LE-His6
H2S release as PbS, A390 [4]
  Km: 35000 ± 6000 µM
  kcat: 0.3 ± 0.03 s⁻¹
  kcat/Km: 8.6 ± 1.8 M⁻¹ s⁻¹
H2S release as PbS, A390 [5]; [7]
  Km: 6300 ± 700 µM
  kcat: 0.081 ± 0.004 s⁻¹
  kcat/Km: 13 ± 1 M⁻¹ s⁻¹
[6]
  Km: 120 ± 10 µM
  kcat: 0.12 ± 0.01 s⁻¹
  kcat/Km: 1000 ± 100 M⁻¹ s⁻¹
DTNB thiol release, A412
  Km: 450 ± 10 µM
  kcat: 0.49 ± 0.01 s⁻¹
  kcat/Km: 1100 ± 100 M⁻¹ s⁻¹

B2: L. plantarum CGL (Lactiplantibacillus plantarum WCFS1; Y97F) (protein)
chain: B1 chain with Y97F
notes: as for B1
H2S release as PbS, A390 [4]; pH 7.5
  Km: 160 ± 30 µM
  kcat: 0.015 ± 0.001 s⁻¹
  kcat/Km: 96 ± 18 M⁻¹ s⁻¹
H2S release as PbS, A390 [5]; [8]
  Km: 1200 ± 800 µM
  kcat: 0.042 ± 0.02 s⁻¹
  kcat/Km: 35 ± 27 M⁻¹ s⁻¹
[6]
  Km: 56 ± 9 µM
  kcat: 0.1 ± 0.01 s⁻¹
  kcat/Km: 1800 ± 300 M⁻¹ s⁻¹
DTNB thiol release, A412
  Km: 770 ± 210 µM
  kcat: 0.0056 ± 0.0007 s⁻¹
  kcat/Km: 7.2 ± 2.2 M⁻¹ s⁻¹
